Source: paper PMC1904285

Columns and labels:
[1] = molecular target: T1, His6-CspB (major cold shock protein) (Bacillus subtilis, UniProt P32081 1-67); test: ITC
[2] = molecular target: His6-CspB (major cold shock protein);SsoSSB (Bacillus subtilis;Sulfolobus …, UniProt P32081;Q97W73 1-67;1-148, |); test: EMSA
[3] = molecular target: T1, His6-CspB (major cold shock protein); test: competition EMSA
[4] = molecular target: T2, SsoSSB (Sulfolobus solfataricus, UniProt Q97W73 1-148); test: EMSA
T2 sequence: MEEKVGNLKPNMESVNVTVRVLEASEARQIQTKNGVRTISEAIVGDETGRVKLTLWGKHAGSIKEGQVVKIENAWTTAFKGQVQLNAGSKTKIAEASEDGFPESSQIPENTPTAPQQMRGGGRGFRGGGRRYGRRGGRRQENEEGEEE

[5] = molecular target: T1, His6-CspB (major cold shock protein); test: EMSA
[6] = molecular target: T3, SsoSSB-Cy5 (Sulfolobus solfataricus, UniProt Q97W73 1-148); test: EMSA
T3 sequence: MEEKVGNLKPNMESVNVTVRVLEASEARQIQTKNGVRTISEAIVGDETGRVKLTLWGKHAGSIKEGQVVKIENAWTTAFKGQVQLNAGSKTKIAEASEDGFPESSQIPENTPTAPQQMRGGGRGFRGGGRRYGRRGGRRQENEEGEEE

[7] = molecular target: CspB (untagged) (Bacillus subtilis, UniProt P32081 1-67); test: EMSA
Chain of CspB (untagged) (P32081 whole entry): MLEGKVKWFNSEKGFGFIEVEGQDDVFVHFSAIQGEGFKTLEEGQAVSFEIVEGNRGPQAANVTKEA

T1 sequence (P32081 whole entry): as above
Chain of His6-CspB (major cold shock protein);SsoSSB (P32081 whole entry, one chain of several): as the sequence (P32081 whole entry) above

GTCTTTG (ssDNA) [ITC1 (consensus variant GTCTTTG)]: binds [1].

AAAAAAAAAAGCACTTAAAAAAAAA (ssDNA) [ON-Mt]: binds [2]; binds [3].

GTCTTTT (ssDNA) [ITC2 (consensus variant GTCTTTT)]: binds [1].

ATCCTACTGATTGGCCAAGGTGCTG (ssDNA) [ONc]: binds [4]; binds [5]; binds [6]. ATCCTACTGATTGGCCAAGGTGCTG (ssDNA) [ONc]: binds [7].
